Source: patent US20240366775A1, “HUMAN TRANSFERRIN RECEPTOR BINDING ANTIBODY-PEPTIDE CONJUGATE” (PEPTIDREAM INC., priority 2021, published 2024)

Tests used:
[1] = biological target: T1, PD-L1 (Homo sapiens, UniProt Q9NZQ7); assay: ELISA bindability of atezolizumab-peptide conjugate to PD-L1; type: binding; settings: sample at 100 nM, average absorbance of two measurements
T1 construct: purchased R&D SYSTEMS 9049-B7
Protocol: The bindability of atezolizumab-peptide conjugates to the antigen PD-L1 was measured by ELISA.
100 μg of PD-L1 (R&D SYSTEMS, Cat. No. 9049-B7) was dissolved in PBS (Nacalai Tesque, Inc., Cat. No. 27575-31) to a final concentration of 1 g/L. To the dissolved PD-L1, 5 equivalents of 10 mM NHS-PEG4-Biotin (Thermo Scientific, Cat. No. A39259) was added and incubated at 4° C. overnight to biotinylate PD-L1. To a column packed with 1 mL of Bio-Gel P-6 (Bio-Rad, Cat. No. 1504130), swollen with a solution of polyoxyethylene sorbitan monolaurate (Nacalai Tesque, Inc., Cat. No. 28353-85) added to PBS to a final concentration of 0.1% (PBST), 100 μL of the above solution was added per one column to remove unreacted NHS-PEG4-Biotin.
Random biotinylated PD-L1 was added to IMMOBILIZER STREPTAVIDIN F96 clear (NUNC, Cat. No. 436014) at 1 μmol per one well and incubated at 4° C. overnight to perform solidification. The plate was washed with 900 μL of PBST in a plate washer (TECAN, HydroSpeed). 300 μL of 1% Block Ace (KAC Co., Ltd., Cat. No. UK-B80) was added per one well and incubated at room temperature for 90 minutes to perform blocking treatment. The plate was washed with 900 μL of PBST in the plate washer. […] The absorbance at 450 nm was measured in a plate reader (Enspir (trademark), Perkin Elmer).

[2] = biological target: T2, human TfR (Homo sapiens, UniProt P02786); assay: ELISA bindability of various antibody-peptide conjugates to TfR; type: binding; settings: sample at 100 nM, average absorbance of two measurements
T2 construct: made in house
Protocol: (§1) Random biotinylated TfR was added to IMMOBILIZER STREPTAVIDIN F96 clear (NUNC, Cat. No. 436014) at 1 μmol per one well and incubated at 4° C. overnight to perform solidification. The plate was washed with 900 μL of PBST in a plate washer (TECAN, HydroSpeed). 300 μL of 1% Block Ace (KAC Co., Ltd., Cat. No. UK-B80) was added per one well and incubated at room temperature for 90 minutes to perform blocking treatment. The plate was washed with 900 μL of PBST in the plate washer. 50 μL of various antibody-peptide conjugate and antibody whose peptide is not modified diluted to a final concentration of 100 nM by 50 mM HEPES pH 7.8-0.1% Block Ace were added and incubated at room temperature for 60 min. The plate was washed with 900 μL of PBST in the plate washer. 50 μL of Goat Anti-Human IgG H&L (HRP) (Abcam, Cat. No. ab97165) diluted 50,000 times with PBST-0.1% Block Ace solution was added and incubated at room temperature for 45 min. The plate was washed with 900 μL of PBST in the plate washer. 50 μL of TMB Solution (Sara care, Cat. No. 5150-0077) at room temperature was added and color development was performed at room temperature for 10 min in dark place, then 50 μL of TMB Stop Solution (Sara care, Cat. No. 5150-0021) was added to stop the color development. The absorbance at 450 nm was measured in a plate reader (Enspir (trademark), Perkin Elmer).

[3] = ELISA no-target control wells (non-specific binding of antibodies and antibody-peptide conjugates); settings: sample at 100 nM, no target immobilized
Protocol: as §1, with “PD-1” for “TfR”, “50 μL of various antibody-peptide conjugate and antibody whose peptide is not modified diluted to a final concentration of 100 nM by 50 mM HEPES pH 7.8-0.1% Block Ace were added and incubated at room temperature for 60 min.” left out
as §1

[4] = Test substance concentration in plasma, hTfR-KI mouse; type: in vivo, hTfR-KI mice; settings: Example 7-2, tail vein 5 mg/kg, 1, 3, 6 and 24 hours, FIG. 2-3
Protocol: Blood was drawn from the tail vein after 1 and 3 hours from administration (2 mice/time point). After 6 and 24 hours from administration, mice were anesthetized with isoflurane, blood was drawn from the right ventricle, and then perfused with saline from the left ventricle for 4 to 5 min for blood removing treatment. Blood was collected using an EDTA-2K-treated needle and syringe, and the collected blood was kept on ice until it was separated into plasma.
To Strept Avidin plate (Meso Scale Diagnostics, LLC), 150 μL/well of Blocker Casein in PBS (Thermo Fisher Scientific, Inc.) was added and shaken (26° C., 500 rpm) for 60 min in a plate shaker (Biosan) to perform blocking treatment. The Blocker Casein in PBS was removed from the Strept Avidin plates, and 200 μL/well of PBST was added to each plate and washed. 25 μL/well of Capture antibody solution was added to each Strept Avidin plate, and the plates were shaken (26° C., 500 rpm) for 60 min in a plate shaker. Capture antibody solution was removed and PBST was added 200 μL/well and washed. This washing operation was performed three times. […] The concentration of each test substance in the samples were calculated by adding 150 μL/well of 2×Read Buffer T to each Strept Avidin plate and measuring with a plate reader (Sector S600, Meso Scale Diagnostics, LLC).

[5] = Test substance concentration in tissue (brain migration), hTfR-KI mouse; type: in vivo, hTfR-KI mice; settings: Example 7-2, tail vein 5 mg/kg, 6 and 24 hours, heart, lung, liver, spleen, kidney, quadriceps muscle, FIG. 2-4
Protocol: Blood was drawn from the tail vein after 1 and 3 hours from administration (2 mice/time point). After 6 and 24 hours from administration, mice were anesthetized with isoflurane, blood was drawn from the right ventricle, and then perfused with saline from the left ventricle for 4 to 5 min for blood removing treatment. Blood was collected using an EDTA-2K-treated needle and syringe, and the collected blood was kept on ice until it was separated into plasma. After blood removing treatment, brains were harvested and divided into left and right portions, and the left brain was embedded in a freeze-embedding agent (OCT compound, Sakura Finetek Co., Ltd.) for immunostaining and a frozen block was prepared. The right brain, heart, lung, liver, spleen, kidney, and quadriceps muscle were collected for measurement of test substance concentrations in tissues, weighed, flash-frozen in liquid nitrogen, and stored at −70° C. or less. […]
To Strept Avidin plate (Meso Scale Diagnostics, LLC), 150 μL/well of Blocker Casein in PBS (Thermo Fisher Scientific, Inc.) was added and shaken (26° C., 500 rpm) for 60 min in a plate shaker (Biosan) to perform blocking treatment. […] The concentration of each test substance in the samples were calculated by adding 150 μL/well of 2×Read Buffer T to each Strept Avidin plate and measuring with a plate reader (Sector S600, Meso Scale Diagnostics, LLC).

T1 sequence (Q9NZQ7 19-290): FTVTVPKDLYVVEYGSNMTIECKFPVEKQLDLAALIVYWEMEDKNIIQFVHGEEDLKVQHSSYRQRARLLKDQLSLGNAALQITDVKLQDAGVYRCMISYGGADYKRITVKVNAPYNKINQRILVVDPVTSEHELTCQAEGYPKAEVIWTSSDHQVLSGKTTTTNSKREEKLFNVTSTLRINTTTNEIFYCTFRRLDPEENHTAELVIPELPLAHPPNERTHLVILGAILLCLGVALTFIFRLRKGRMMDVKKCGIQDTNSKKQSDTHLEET
T2 sequence (P02786 whole entry): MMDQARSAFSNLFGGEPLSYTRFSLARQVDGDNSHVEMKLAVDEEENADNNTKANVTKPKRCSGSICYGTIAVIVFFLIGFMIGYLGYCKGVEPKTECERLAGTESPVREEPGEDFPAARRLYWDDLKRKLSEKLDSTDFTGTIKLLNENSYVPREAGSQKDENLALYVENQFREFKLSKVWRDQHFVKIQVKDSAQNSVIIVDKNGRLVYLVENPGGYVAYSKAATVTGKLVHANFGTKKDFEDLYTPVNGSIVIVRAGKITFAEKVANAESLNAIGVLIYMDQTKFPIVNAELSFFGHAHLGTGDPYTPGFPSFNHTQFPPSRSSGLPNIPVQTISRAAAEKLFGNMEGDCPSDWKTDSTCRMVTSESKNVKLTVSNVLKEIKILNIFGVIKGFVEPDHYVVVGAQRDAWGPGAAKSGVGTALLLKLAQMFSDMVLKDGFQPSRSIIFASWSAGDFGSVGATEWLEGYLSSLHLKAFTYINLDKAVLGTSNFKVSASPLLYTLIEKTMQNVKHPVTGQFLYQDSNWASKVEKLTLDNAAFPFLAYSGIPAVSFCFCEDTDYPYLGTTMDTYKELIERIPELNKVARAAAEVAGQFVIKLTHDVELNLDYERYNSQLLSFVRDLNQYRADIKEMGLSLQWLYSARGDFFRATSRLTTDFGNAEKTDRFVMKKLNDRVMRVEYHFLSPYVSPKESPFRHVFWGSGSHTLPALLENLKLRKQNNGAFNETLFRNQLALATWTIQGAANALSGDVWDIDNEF

Substance | Abs450 nm at 100 nM, No-target [3] | other results
atezolizumab | 0.043 | Abs450 nm at 100 nM, Target PD-L1 [1]: 2.237; Abs450 nm at 100 nM, Target hTfR [2]: 0.0465
ipilimumab | 0.044 | –
nivolumab [Nivolumab (control)] | – | concentration in plasma, time course [4]: detected in plasma at all time points evaluated and showed biphasic changes in plasma concentrations; detection in tissues [5]: detected in all tissues
pembrolizumab | 0.0415 | –
pertuzumab | 0.0455 | –
